Laboratory results published in patent US20250171562A1 (ALK ABELL, published 2025).

B1: CIgG4E2A1(G4S)1 (Fc fusion)
chain 1: GPPCPPCPAPEFLGGPSVFLFPPKPKDTLMISRTPEVTCVVVDVSQEDPEVQFNWYVDGVEVHNAKTKPREEQFNSTYRVVSVLTVLHQDWLNGKEYKCKVSNKGLPSSIEKTISKAKGQPREPQVYTLPPCQEEMTKNQVSLWCLVKGFYPSDIAVEWESNGQPENNYKTTPPVLDSDGSFFLYSRLTVDKSRWQEGNVFSCSVMHEALHNHYTQKSLSLSLGKGGGGSDVQLQESGGGLVQAGGSLRLSCAASGRTISRYAVGWFRRPPAKEREFIGINWSGGSTTYADSAEGRFIISRDNAKNTVYLQMNSLKPEDTAVYYCAVPSVLVQGGISNPSQYDYWGQGTQVTVS
chain 2: GPPCPPCPAPEFLGGPSVFLFPPKPKDTLMISRTPEVTCVVVDVSQEDPEVQFNWYVDGVEVHNAKTKPREEQFNSTYRVVSVLTVLHQDWLNGKEYKCKVSNKGLPSSIEKTISKAKGQPREPQVCTLPPSQEEMTKNQVSLSCAVKGFYPSDIAVEWESNGQPENNYKTTPPVLDSDGSFFLVSRLTVDKSRWQEGNVFSCSVMHEALHNHYTQKSLSLSLGKGGGGSEVQLLESGGGLVQPGGSLRLSCAASGFTFGNYDMAWVRQAPGKRPEWVSSIDTGGDITHYADSVKGRFTISRDNAKNTLYLQMNSLRPEDTAVYWCATDEEYALGPNEFDYYGQGTLVTVSS
B2: CIgG4E3A1(G4S)1 (Fc fusion)
chain 1: GPPCPPCPAPEFLGGPSVFLFPPKPKDTLMISRTPEVTCVVVDVSQEDPEVQFNWYVDGVEVHNAKTKPREEQFNSTYRVVSVLTVLHQDWLNGKEYKCKVSNKGLPSSIEKTISKAKGQPREPQVYTLPPCQEEMTKNQVSLWCLVKGFYPSDIAVEWESNGQPENNYKTTPPVLDSDGSFFLYSRLTVDKSRWQEGNVFSCSVMHEALHNHYTQKSLSLSLGKGGGGSDVQLQESGGGLVQAGGSLRLACAASGRTLSSYVVSWFRQAPGKERKFVAAITWSGLSTTYLDSVQGRFTISRDNTKDTVYLQMNSLKPQDTAIYYCAAGPNIPSILRTRESEYAYWGQGTQVTVS
chain 2: B1 chain 2
B3: CIgG4E2A1(G4S)2 (Fc fusion)
chain 1: GPPCPPCPAPEFLGGPSVFLFPPKPKDTLMISRTPEVTCVVVDVSQEDPEVQFNWYVDGVEVHNAKTKPREEQFNSTYRVVSVLTVLHQDWLNGKEYKCKVSNKGLPSSIEKTISKAKGQPREPQVYTLPPCQEEMTKNQVSLWCLVKGFYPSDIAVEWESNGQPENNYKTTPPVLDSDGSFFLYSRLTVDKSRWQEGNVFSCSVMHEALHNHYTQKSLSLSLGKGGGGSGGGGSDVQLQESGGGLVQAGGSLRLSCAASGRTISRYAVGWFRRPPAKEREFIGINWSGGSTTYADSAEGRFIISRDNAKNTVYLQMNSLKPEDTAVYYCAVPSVLVQGGISNPSQYDYWGQGTQVTVS
chain 2: GPPCPPCPAPEFLGGPSVFLFPPKPKDTLMISRTPEVTCVVVDVSQEDPEVQFNWYVDGVEVHNAKTKPREEQFNSTYRVVSVLTVLHQDWLNGKEYKCKVSNKGLPSSIEKTISKAKGQPREPQVCTLPPSQEEMTKNQVSLSCAVKGFYPSDIAVEWESNGQPENNYKTTPPVLDSDGSFFLVSRLTVDKSRWQEGNVFSCSVMHEALHNHYTQKSLSLSLGKGGGGSGGGGSEVQLLESGGGLVQPGGSLRLSCAASGFTFGNYDMAWVRQAPGKRPEWVSSIDTGGDITHYADSVKGRFTISRDNAKNTLYLQMNSLRPEDTAVYWCATDEEYALGPNEFDYYGQGTLVTVSS
B4: CIgG4E2A1(G4S)3 (Fc fusion)
chain 1: GPPCPPCPAPEFLGGPSVFLFPPKPKDTLMISRTPEVTCVVVDVSQEDPEVQFNWYVDGVEVHNAKTKPREEQFNSTYRVVSVLTVLHQDWLNGKEYKCKVSNKGLPSSIEKTISKAKGQPREPQVYTLPPCQEEMTKNQVSLWCLVKGFYPSDIAVEWESNGQPENNYKTTPPVLDSDGSFFLYSRLTVDKSRWQEGNVFSCSVMHEALHNHYTQKSLSLSLGKGGGGSGGGGSGGGGSDVQLQESGGGLVQAGGSLRLSCAASGRTISRYAVGWFRRPPAKEREFIGINWSGGSTTYADSAEGRFIISRDNAKNTVYLQMNSLKPEDTAVYYCAVPSVLVQGGISNPSQYDYWGQGTQVTVS
chain 2: GPPCPPCPAPEFLGGPSVFLFPPKPKDTLMISRTPEVTCVVVDVSQEDPEVQFNWYVDGVEVHNAKTKPREEQFNSTYRVVSVLTVLHQDWLNGKEYKCKVSNKGLPSSIEKTISKAKGQPREPQVCTLPPSQEEMTKNQVSLSCAVKGFYPSDIAVEWESNGQPENNYKTTPPVLDSDGSFFLVSRLTVDKSRWQEGNVFSCSVMHEALHNHYTQKSLSLSLGKGGGGSGGGGSGGGGSEVQLLESGGGLVQPGGSLRLSCAASGFTFGNYDMAWVRQAPGKRPEWVSSIDTGGDITHYADSVKGRFTISRDNAKNTLYLQMNSLRPEDTAVYWCATDEEYALGPNEFDYYGQGTLVTVSS
B5: CIgG4E2A1(RS) (Fc fusion)
chain 1: GPPCPPCPAPEFLGGPSVFLFPPKPKDTLMISRTPEVTCVVVDVSQEDPEVQFNWYVDGVEVHNAKTKPREEQFNSTYRVVSVLTVLHQDWLNGKEYKCKVSNKGLPSSIEKTISKAKGQPREPQVYTLPPCQEEMTKNQVSLWCLVKGFYPSDIAVEWESNGQPENNYKTTPPVLDSDGSFFLYSRLTVDKSRWQEGNVFSCSVMHEALHNHYTQKSLSLSLGKRSDVQLQESGGGLVQAGGSLRLSCAASGRTISRYAVGWFRRPPAKEREFIGINWSGGSTTYADSAEGRFIISRDNAKNTVYLQMNSLKPEDTAVYYCAVPSVLVQGGISNPSQYDYWGQGTQVTVS
chain 2: GPPCPPCPAPEFLGGPSVFLFPPKPKDTLMISRTPEVTCVVVDVSQEDPEVQFNWYVDGVEVHNAKTKPREEQFNSTYRVVSVLTVLHQDWLNGKEYKCKVSNKGLPSSIEKTISKAKGQPREPQVCTLPPSQEEMTKNQVSLSCAVKGFYPSDIAVEWESNGQPENNYKTTPPVLDSDGSFFLVSRLTVDKSRWQEGNVFSCSVMHEALHNHYTQKSLSLSLGKRSEVQLLESGGGLVQPGGSLRLSCAASGFTFGNYDMAWVRQAPGKRPEWVSSIDTGGDITHYADSVKGRFTISRDNAKNTLYLQMNSLRPEDTAVYWCATDEEYALGPNEFDYYGQGTLVTVSS
B6: CIgG4E3A1(RS) (Fc fusion)
chain 1: GPPCPPCPAPEFLGGPSVFLFPPKPKDTLMISRTPEVTCVVVDVSQEDPEVQFNWYVDGVEVHNAKTKPREEQFNSTYRVVSVLTVLHQDWLNGKEYKCKVSNKGLPSSIEKTISKAKGQPREPQVYTLPPCQEEMTKNQVSLWCLVKGFYPSDIAVEWESNGQPENNYKTTPPVLDSDGSFFLYSRLTVDKSRWQEGNVFSCSVMHEALHNHYTQKSLSLSLGKRSDVQLQESGGGLVQAGGSLRLACAASGRTLSSYVVSWFRQAPGKERKFVAAITWSGLSTTYLDSVQGRFTISRDNTKDTVYLQMNSLKPQDTAIYYCAAGPNIPSILRTRESEYAYWGQGTQVTVS
chain 2: B5 chain 2

Biological target: T1, recombinant human IgE (human, UniProt P01854-1 1-428)
T1 construct: made in-house (ALK); preloaded on immobilised FcεRIα in the displacement ELISA
Experiment: IgE-FcεRIα displacement ELISA
Summary of the method: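 sdAbs at pM–μM were incubated 1 h on preformed complexes of 13 ng/ml recombinant human IgE with avi-tag-biotinylated human FcεRIα captured on streptavidin.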

T1 sequence (P01854 other isoform, or with tags, fused parts or gaps): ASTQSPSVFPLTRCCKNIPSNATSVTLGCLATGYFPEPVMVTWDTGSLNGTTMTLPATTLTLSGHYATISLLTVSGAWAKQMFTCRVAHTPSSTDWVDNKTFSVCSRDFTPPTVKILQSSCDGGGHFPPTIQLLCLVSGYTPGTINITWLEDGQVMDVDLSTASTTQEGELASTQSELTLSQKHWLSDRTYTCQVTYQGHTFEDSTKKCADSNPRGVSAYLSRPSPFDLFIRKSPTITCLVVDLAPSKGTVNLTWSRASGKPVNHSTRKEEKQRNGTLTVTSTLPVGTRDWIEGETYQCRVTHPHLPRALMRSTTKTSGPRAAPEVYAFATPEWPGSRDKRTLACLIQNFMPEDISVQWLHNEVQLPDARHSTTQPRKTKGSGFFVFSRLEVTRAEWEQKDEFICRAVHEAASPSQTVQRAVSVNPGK

Binder | EC50 | Max effect
B1 | 1000 nM | 50%
B2 | 130 nM | 85%
B3 | 410 nM | 65%
B4 | 160 nM | 75%
B5 | – | 25%
B6 | – | 30%
